{"source": "patent US20080311125A1", "target": "HIV-1 gp120 (HIV-1)", "assay": "ELISA, coated gp120; binding relative to scytovirin", "data": [{"substance": "SD2 (residues 49-95 of scytovirin with a substitution of serine at position 55) (peptide)", "values": [{"measurement": "percent binding in comparison to scytovirin", "value": 50, "unit": "%"}]}]}
